In patent US20230110958A1 (Regeneron, published 2023):
Substitutions are numbered along the chain they refer to. Names and notes keep the numbering of the source. Values belong to the molecule of their own block, whether it stands above or below them.

Legend:
Assay in all cases: cell-based or functional assay
[1] = target: human IL27 receptor (IL27Ra and gp130) on NCI-H929/GAS-Luc cells (human) (UniProt Q6UWB1)
[2] = target: T1, murine IL27 receptor (IL27Ra and gp130) on mouse cells (MC9/STAT3-Luc reporter cells; splenic CD4+ T cells) (mouse, UniProt O70394 25-623; Q00560 23-917)
T1 sequence (looked up) 1: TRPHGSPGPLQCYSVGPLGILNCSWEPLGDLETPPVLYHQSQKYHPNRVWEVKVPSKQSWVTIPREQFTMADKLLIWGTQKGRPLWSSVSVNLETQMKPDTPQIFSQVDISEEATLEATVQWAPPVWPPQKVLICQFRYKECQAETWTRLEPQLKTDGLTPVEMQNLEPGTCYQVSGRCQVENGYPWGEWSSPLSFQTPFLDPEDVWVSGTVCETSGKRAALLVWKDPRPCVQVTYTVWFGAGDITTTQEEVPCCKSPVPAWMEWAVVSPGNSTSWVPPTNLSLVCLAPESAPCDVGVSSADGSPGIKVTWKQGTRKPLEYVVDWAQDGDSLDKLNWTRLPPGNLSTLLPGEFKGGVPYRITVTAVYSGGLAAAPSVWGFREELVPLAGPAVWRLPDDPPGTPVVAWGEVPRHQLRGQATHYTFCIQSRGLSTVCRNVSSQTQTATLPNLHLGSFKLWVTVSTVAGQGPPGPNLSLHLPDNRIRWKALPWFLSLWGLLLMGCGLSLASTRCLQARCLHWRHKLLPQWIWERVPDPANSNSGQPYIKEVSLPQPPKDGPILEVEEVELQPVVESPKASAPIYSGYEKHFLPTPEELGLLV
T1 sequence (looked up) 2: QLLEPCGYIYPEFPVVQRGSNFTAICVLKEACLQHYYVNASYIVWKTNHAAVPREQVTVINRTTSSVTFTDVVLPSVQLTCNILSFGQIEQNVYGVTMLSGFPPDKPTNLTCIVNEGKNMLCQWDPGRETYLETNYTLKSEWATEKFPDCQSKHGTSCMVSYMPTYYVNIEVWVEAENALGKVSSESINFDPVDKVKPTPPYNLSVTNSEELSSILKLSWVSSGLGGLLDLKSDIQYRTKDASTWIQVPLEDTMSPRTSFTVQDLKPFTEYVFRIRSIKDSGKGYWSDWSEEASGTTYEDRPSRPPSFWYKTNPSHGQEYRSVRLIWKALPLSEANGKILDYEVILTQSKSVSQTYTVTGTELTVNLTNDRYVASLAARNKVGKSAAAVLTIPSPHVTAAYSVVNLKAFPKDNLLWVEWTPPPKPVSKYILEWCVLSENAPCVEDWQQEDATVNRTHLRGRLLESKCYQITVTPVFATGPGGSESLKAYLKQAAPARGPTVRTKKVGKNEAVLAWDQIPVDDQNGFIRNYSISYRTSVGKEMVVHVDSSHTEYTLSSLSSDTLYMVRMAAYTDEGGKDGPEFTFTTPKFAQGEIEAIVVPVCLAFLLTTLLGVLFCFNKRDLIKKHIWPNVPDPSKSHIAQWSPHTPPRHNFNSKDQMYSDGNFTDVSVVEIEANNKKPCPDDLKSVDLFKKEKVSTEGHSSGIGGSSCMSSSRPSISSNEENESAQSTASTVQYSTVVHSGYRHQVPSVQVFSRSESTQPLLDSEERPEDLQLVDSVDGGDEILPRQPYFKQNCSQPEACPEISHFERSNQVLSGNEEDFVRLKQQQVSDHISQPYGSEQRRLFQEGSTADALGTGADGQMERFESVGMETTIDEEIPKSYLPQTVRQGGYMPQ

[3] = target: T1, murine IL27 receptor (IL27Ra and gp130) …; remark: listed apart in the source
[4] = target: T2, murine IL27 receptor (IL27Ra and gp130) on mouse cells (MC9/STAT3-Luc reporter cells; splenic CD4+ T cells) (mouse) (UniProt O70394)
T2 sequence (looked up) 1: T1 sequence (looked up) 1
T2 sequence (looked up) 2: T1 sequence (looked up) 2

human IL27 receptor (IL27Ra and gp130) on NCI-H929/GAS-Luc cells (human), sequence (Q6UWB1 33-636, chain 1 of 2): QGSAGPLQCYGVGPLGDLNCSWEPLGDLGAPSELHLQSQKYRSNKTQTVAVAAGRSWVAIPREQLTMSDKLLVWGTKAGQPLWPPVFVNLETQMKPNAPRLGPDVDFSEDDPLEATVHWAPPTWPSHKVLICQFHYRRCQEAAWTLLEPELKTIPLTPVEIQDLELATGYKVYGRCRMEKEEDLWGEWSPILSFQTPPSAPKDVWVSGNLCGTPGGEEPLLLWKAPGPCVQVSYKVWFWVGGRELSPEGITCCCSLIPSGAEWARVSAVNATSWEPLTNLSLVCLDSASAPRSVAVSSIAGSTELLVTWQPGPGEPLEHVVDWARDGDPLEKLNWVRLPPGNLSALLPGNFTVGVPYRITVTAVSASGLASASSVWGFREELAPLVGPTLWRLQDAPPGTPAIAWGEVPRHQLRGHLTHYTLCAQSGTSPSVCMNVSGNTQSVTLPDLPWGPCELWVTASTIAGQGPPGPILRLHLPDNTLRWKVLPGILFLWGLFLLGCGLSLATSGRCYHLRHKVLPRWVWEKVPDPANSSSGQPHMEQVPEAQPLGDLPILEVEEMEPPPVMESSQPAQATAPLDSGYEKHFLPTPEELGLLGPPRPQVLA
human IL27 receptor (IL27Ra and gp130) on NCI-H929/GAS-Luc cells (human), sequence (chain, as listed by the source, chain 2 of 2): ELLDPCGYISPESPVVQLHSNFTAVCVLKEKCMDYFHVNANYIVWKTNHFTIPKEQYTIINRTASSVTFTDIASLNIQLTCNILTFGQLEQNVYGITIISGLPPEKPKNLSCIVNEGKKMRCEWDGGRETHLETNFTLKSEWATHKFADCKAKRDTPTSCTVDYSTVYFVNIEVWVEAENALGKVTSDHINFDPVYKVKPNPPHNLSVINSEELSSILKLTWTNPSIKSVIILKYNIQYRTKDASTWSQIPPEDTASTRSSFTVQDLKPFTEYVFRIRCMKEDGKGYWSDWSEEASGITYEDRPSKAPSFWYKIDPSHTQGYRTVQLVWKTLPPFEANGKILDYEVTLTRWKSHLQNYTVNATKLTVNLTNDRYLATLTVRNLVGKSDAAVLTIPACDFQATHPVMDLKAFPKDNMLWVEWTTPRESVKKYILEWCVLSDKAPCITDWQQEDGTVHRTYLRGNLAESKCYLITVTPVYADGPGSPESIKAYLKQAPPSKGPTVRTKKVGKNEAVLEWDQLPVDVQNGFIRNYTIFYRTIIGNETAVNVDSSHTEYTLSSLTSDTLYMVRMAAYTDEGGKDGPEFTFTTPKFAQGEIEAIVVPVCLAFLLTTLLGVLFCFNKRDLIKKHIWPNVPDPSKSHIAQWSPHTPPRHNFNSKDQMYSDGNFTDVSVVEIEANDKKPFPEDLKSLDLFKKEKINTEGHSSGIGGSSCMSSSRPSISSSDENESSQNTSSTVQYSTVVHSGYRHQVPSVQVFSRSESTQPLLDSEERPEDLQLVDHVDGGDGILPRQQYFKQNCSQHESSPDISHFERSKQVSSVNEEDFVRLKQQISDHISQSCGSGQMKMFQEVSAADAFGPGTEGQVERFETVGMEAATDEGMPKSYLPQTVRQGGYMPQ

EC50 (M), GAS luciferase, NCI-H929/GAS-Luc cells [1]: 1.27e-10 M | FOLD INDUCTION, GAS luciferase, NCI-H929/GAS-Luc cells [1]: 14.3 fold
Molecule: human hEBI3×hp28-Fc (monovalent) (Fc fusion)

EC50 (M), GAS luciferase, NCI-H929/GAS-Luc cells [1]: 5.35e-09 M | FOLD INDUCTION, GAS luciferase, NCI-H929/GAS-Luc cells [1]: 15.2 fold
Molecule: human EBI3-p28-Fc (bivalent), configuration IL27M1 (Fc fusion)

EC50 (M), STAT3 luciferase, MC9/STAT3-Luc cells [3]: 3.85e-10 M | FOLD INDUCTION, STAT3 luciferase, MC9/STAT3-Luc cells [3]: 2.8 fold
B7: IL27M26, monovalent Fc x EB13-p28 (L198A, L199A) (Fc fusion)
chain 1: ESKYGPPCPPCPAPPVAGPSVFLFPPKPKDTLMISRTPEVTCVVVDVSQEDPEVQFNWYVDGVEVHNAKTKPREEQFNSTYRVVSVLTVLHQDWLNGKEYKCKVSNKGLPSSIEKTISKAKGQPREPQVYTLPPSQEEMTKNQVSLWCLVKGFYPSDIAVEWESNGQPENNYKTTPPVLDSDGSFFLYSRLTVDKSRWQEGNVFSCSVMHEALHNHYTQKSLSLSLGKGGGGSGGGGSGGGGSYTETALVALSQPRVQCHASRYPVAVDCSWTPLQAPNSTRSTSFIATYRLGVATQQQSQPCLQRSPQASRCTIPDVHLFSTVPYMLNVTAVHPGGASSSLLAFVAERIIKPDPPEGVRLRTAGQRLQVLWHPPASWPFPDIFSLKYRLRYRRRGASHFRQVGPIEATTFTLRNSKPHAKYCIQVSAQDLTDYGKPSDWSLPGQVESAPHKPGGGGSGGGGSGGGGSGGGGSFPTDPLSLQELRREFTVSLYLARKLLSEVQGYVHSFAESRLPGVNLDLLPLGYHLPNVSLTFQAWHHLSDSERLCFLATTLRPFPAMLGGLGTQGTWTSSEREQLWAMRLDLRDLHRHLRFQVLAAGFKCSKEEEDKEEEEEEEEEEKKLPLGALGGPNQVSSQVSWPQAAYTYQLLHSLELVLSRAVRDLLLLSLPRRPGSAWDS
chain 2: ESKYGPPCPPCPAPPVAGPSVFLFPPKPKDTLMISRTPEVTCVVVDVSQEDPEVQFNWYVDGVEVHNAKTKPREEQFNSTYRVVSVLTVLHQDWLNGKEYKCKVSNKGLPSSIEKTISKAKGQPREPQVYTLPPSQEEMTKNQVSLSCAVKGFYPSDIAVEWESNGQPENNYKTTPPVLDSDGSFFLVSRLTVDKSRWQEGNVFSCSVMHEALHNRFTQKSLSLSPGK

FOLD INDUCTION, STAT3 luciferase, MC9/STAT3-Luc cells [3]: 1.2 fold
B9: IL27M27, monovalent Fc x EB13-p28 (W195A) (Fc fusion)
chain 1: B7 chain 1 with W640A, A643L, A644L
chain 2: B7 chain 2

EC50 (M), STAT3 luciferase, MC9/STAT3-Luc cells [4]: 3.22e-12 M | EC50 (M), STAT3 luciferase, MC9 cells [4]: 4.62e-12 M | EC50, luciferase activity, MC9/STAT3-Luc reporter cells [4]: 6.3 pM | EC50, phosphorylation of STAT1 in CD4+ T-cells [4]: 24.4 ng/mL | FOLD INDUCTION, STAT3 luciferase, MC9/STAT3-Luc cells [4]: 5.25 fold | FOLD INDUCTION, STAT3 luciferase, MC9 cells [4]: 2.86 fold
B10: Recombinant murine IL27 (R&D Systems cat# 2700-ML-010/CF), Mouse EBI3-(GGGS)4-Mouse p28-6-His tag (ligand)
chain: YTETALVALSQPRVQCHASRYPVAVDCSWTPLQAPNSTRSTSFIATYRLGVATQQQSQPCLQRSPQASRCTIPDVHLFSTVPYMLNVTAVHPGGASSSLLAFVAERIIKPDPPEGVRLRTAGQRLQVLWHPPASWPFPDIFSLKYRLRYRRRGASHFRQVGPIEATTFTLRNSKPHAKYCIQVSAQDLTDYGKPSDWSLPGQVESAPHKPGGGSGGGSGGGSGGGSFPTDPLSLQELRREFTVSLYLARKLLSEVQGYVHSFAESRLPGVNLDLLPLGYHLPNVSLTFQAWHHLSDSERLCFLATTLRPFPAMLGGLGTQGTWTSSEREQLWAMRLDLRDLHRHLRFQVLAAGFKCSKEEEDKEEEEEEEEEEKKLPLGALGGPNQVSSQVSWPQLLYTYQLLHSLELVLSRAVRDLLLLSLPRRPGSAWDSHHHHHH

Further lines, the molecule ahead of its results:

B1: IL27M17, Bivalent Fc-p28 (Fc fusion)
chain: ESKYGPPCPPCPAPPVAGPSVFLFPPKPKDTLMISRTPEVTCVVVDVSQEDPEVQFNWYVDGVEVHNAKTKPREEQFNSTYRVVSVLTVLHQDWLNGKEYKCKVSNKGLPSSIEKTISKAKGQPREPQVYTLPPSQEEMTKNQVSLTCLVKGFYPSDIAVEWESNGQPENNYKTTPPVLDSDGSFFLYSRLTVDKSRWQEGNVFSCSVMHEALHNHYTQKSLSLSLGKGGGGSGGGGSGGGGSFPTDPLSLQELRREFTVSLYLARKLLSEVQGYVHSFAESRLPGVNLDLLPLGYHLPNVSLTFQAWHHLSDSERLCFLATTLRPFPAMLGGLGTQGTWTSSEREQLWAMRLDLRDLHRHLRFQVLAAGFKCSKEEEDKEEEEEEEEEEKKLPLGALGGPNQVSSQVSWPQLLYTYQLLHSLELVLSRAVRDLLLLSLPRRPGSAWDS
FOLD INDUCTION, STAT3 luciferase, MC9 cells [2]: 1.16 fold

B2: IL27M18, 2:2 complex between IL27M17 (Fc-p28) and EBI3-mmh (Fc fusion)
chain 1: B1 chain
chain 2: YTETALVALSQPRVQCHASRYPVAVDCSWTPLQAPNSTRSTSFIATYRLGVATQQQSQPCLQRSPQASRCTIPDVHLFSTVPYMLNVTAVHPGGASSSLLAFVAERIIKPDPPEGVRLRTAGQRLQVLWHPPASWPFPDIFSLKYRLRYRRRGASHFRQVGPIEATTFTLRNSKPHAKYCIQVSAQDLTDYGKPSDWSLPGQVESAPHKPEQKLISEEDLGGEQKLISEEDLHHHHHH
EC50 (M), STAT3 luciferase, MC9 cells [2]: 2.36e-10 M | FOLD INDUCTION, STAT3 luciferase, MC9 cells [2]: 2.86 fold

B3: IL27M14, 2:2 complex between IL27M13 (p28-Fc) and EBI3-mmh (Fc fusion)
chain 1: FPTDPLSLQELRREFTVSLYLARKLLSEVQGYVHSFAESRLPGVNLDLLPLGYHLPNVSLTFQAWHHLSDSERLCFLATTLRPFPAMLGGLGTQGTWTSSEREQLWAMRLDLRDLHRHLRFQVLAAGFKCSKEEEDKEEEEEEEEEEKKLPLGALGGPNQVSSQVSWPQLLYTYQLLHSLELVLSRAVRDLLLLSLPRRPGSAWDSGGGGSGGGGSGGGGSESKYGPPCPPCPAPPVAGPSVFLFPPKPKDTLMISRTPEVTCVVVDVSQEDPEVQFNWYVDGVEVHNAKTKPREEQFNSTYRVVSVLTVLHQDWLNGKEYKCKVSNKGLPSSIEKTISKAKGQPREPQVYTLPPSQEEMTKNQVSLTCLVKGFYPSDIAVEWESNGQPENNYKTTPPVLDSDGSFFLYSRLTVDKSRWQEGNVFSCSVMHEALHNHYTQKSLSLSLGK
chain 2: B2 chain 2
EC50 (M), STAT3 luciferase, MC9 cells [2]: 2.81e-10 M | FOLD INDUCTION, STAT3 luciferase, MC9 cells [2]: 2.71 fold

B4: IL27M16, monovalent Fc x EBI3-p28 (Fc fusion)
chain 1: B7 chain 1 with A643L, A644L
chain 2: B7 chain 2
EC50 (M), STAT3 luciferase, MC9/STAT3-Luc cells [3]: 1.16e-11 M | FOLD INDUCTION, STAT3 luciferase, MC9/STAT3-Luc cells [3]: 5.62 fold | EC50 (M), STAT3 luciferase, MC9 cells [2]: 1.18e-11 M | FOLD INDUCTION, STAT3 luciferase, MC9 cells [2]: 2.76 fold

B5: IL27M24, monovalent Fc x EB13-p28 (K52A) (Fc fusion)
chain 1: B7 chain 1 with K497A, A643L, A644L
chain 2: B7 chain 2
EC50 (M), STAT3 luciferase, MC9/STAT3-Luc cells [3]: 1.18e-11 M | FOLD INDUCTION, STAT3 luciferase, MC9/STAT3-Luc cells [3]: 5.59 fold

B6: IL27M23, monovalent Fc x EB13-p28 (Y202A, Q203A) (Fc fusion)
chain 1: B7 chain 1 with A643L, A644L, Y647A, Q648A
chain 2: B7 chain 2
EC50 (M), STAT3 luciferase, MC9/STAT3-Luc cells [3]: 1.98e-11 M | FOLD INDUCTION, STAT3 luciferase, MC9/STAT3-Luc cells [3]: 5.34 fold

B8: IL27M25, monovalent Fc x EB13-p28 (L138A, R145A, H146A) (Fc fusion)
chain 1: B7 chain 1 with L583A, R590A, H591A, A643L, A644L
chain 2: B7 chain 2
FOLD INDUCTION, STAT3 luciferase, MC9/STAT3-Luc cells [3]: 4.35 fold
